The record followed here is patent US20230340151A1 (Pfizer, published 2023).

Substitutions are numbered along the chain they refer to.

One may read the Kd as the free concentration of one partner at which half of the binding sites on the other are occupied at equilibrium, for simple one-to-one binding. As usually defined, the EC50 is the concentration giving half of the maximal effect.

Assay [1] deals with Human CD3 on naive human T cells (human, UniProt P07766 23-207). Nature of the assay: cell-based or functional assay.
A further assay has as its target T1, Human CD3 epsilon-delta (human).
T1 construct: Single-chain epsilon-linker-delta with His6; also called huCD3
T1 chain: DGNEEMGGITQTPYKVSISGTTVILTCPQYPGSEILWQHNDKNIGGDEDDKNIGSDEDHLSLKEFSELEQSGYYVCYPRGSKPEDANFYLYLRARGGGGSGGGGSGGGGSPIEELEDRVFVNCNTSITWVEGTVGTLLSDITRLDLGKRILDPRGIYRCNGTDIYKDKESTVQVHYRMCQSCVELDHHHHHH
Put plainly: SPR, recombinant human CD3. For orientation: Surface plasmon resonance follows binding to a sensor surface in real time, without labels.

In the next assay the target is T2, Human GUCY2C ECD-muIgG2a (human).
T2 construct: also called human GUCY2c ECD-mouse IgG2a Fc fusion protein; huGUCY2c-mIgG2a
T2 sequence (chain, as listed by the source limits assumed): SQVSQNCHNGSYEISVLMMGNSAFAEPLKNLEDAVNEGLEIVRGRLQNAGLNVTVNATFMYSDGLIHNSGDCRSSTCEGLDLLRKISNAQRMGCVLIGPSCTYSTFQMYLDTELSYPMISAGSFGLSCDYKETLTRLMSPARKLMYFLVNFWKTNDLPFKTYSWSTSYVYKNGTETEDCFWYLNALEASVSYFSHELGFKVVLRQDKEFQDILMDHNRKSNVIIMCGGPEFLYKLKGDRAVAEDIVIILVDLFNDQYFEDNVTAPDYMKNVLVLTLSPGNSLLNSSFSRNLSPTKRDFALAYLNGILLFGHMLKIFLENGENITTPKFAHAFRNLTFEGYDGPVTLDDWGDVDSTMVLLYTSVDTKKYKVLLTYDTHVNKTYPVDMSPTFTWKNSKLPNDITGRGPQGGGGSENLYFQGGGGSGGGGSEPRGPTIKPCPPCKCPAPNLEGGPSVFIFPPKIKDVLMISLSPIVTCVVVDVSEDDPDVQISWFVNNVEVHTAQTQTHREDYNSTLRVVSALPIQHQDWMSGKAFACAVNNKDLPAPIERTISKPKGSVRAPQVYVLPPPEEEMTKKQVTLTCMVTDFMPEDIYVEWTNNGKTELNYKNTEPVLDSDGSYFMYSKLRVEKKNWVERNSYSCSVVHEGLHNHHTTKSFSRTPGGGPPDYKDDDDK
Nature of the assay: huCD3-huGUCY2C sandwich ELISA (CD3 coated). (In general: In an ELISA, binding on a coated surface is turned into a signal by an enzyme label.)

Description for Human GUCY2C ECD-muIgG2a: To test bispecific binding to both GUCY2c and CD3, a sandwich ELISA was performed. […] Plates were washed 3× with PBS+0.05% TWEEN20 and blocked with PBS+3% milk for 1 hr, shaking at RT. Blocking solution was removed and samples serially diluted in block were added and incubated for 1 hr shaking at RT. Plates were washed 3x as before and purified human, cynomolgus or murine GUCY2c ECD-mouse IgG2a Fc fusion protein was added to the plate at 1 μg/ml and incubated at RT, shaking for 1 hr. Plates were washed 3× as before and a secondary antibody was added (goat anti-mouse IgG Fc-HRP—Thermo Scientific, diluted 1:4,000), followed by shaking for 1 hr at RT. Plates were washed as before and signal was developed using TMB, the reaction stopped with H2SO4 and the absorbance read at 450 nm on an EnVision® plate reader (Perkin Elmer). An alternative detection method was also periodically employed in place of TMB/H2SO4.

B1: GUCY2C-1679 (bispecific antibody)
chain 1: DIQLTQSPSSLSASVGDRVTITCRASESVDYYGSSLLQWYQQKPGKAPKLLIYAASKLASGVPSRFSGSGSGTDFTLTISSLQPEDFATYYCQQTRKAYTFGQGTKLEIKGGGSGGGGEVQLVESGGGLVQPGGSLRLSCAASGFTFSDYYMTWVRQAPGKGLEWVAFIRNQARGYTSDHNPSVKGRFTISRDNAKNSLYLQMNSLRAEDTAVYYCARDRPSYYVLDYWGQGTTVTVSSGCPPCPAPEAAGAPSVFLFPPKPKDTLMISRTPEVTCVVVDVSHEDPEVKFNWYVDGVEVHNAKTKPREEQYNSTYRVVSVLTVLHQDWLNGKEYKCKVSNKALPAPIEKTISKAKGQPREPQVCTLPPSREEMTKNQVSLWCLVKGFYPSDIAVEWESNGQPENNYKTTPPVLDSDGSFFLYSKLTVDKSRWQQGNVFSCSVMHEALHNHYTQKSLSLSPG
chain 2: DIQMTQSPSSLSASVGDRVTITCTSSQSLFNVRSGKNYLAWYQQKPGKAPKLLIYWASDRESGVPSRFSGSGSGTDFTLTISSLQPEDFATYYCKQSYDLFTFGGGTKVEIKGGGGSGGGGEVQLVESGGGLVQPGGSLRLSCAASGFTFSSYWMHWVRQAPGKGLEWIGEIKPSNELTNVHEKFKDRFTISVDKAKNSAYLQMNSLRAEDTAVYYCTRTITTTEGYWFFDVWGQGTLVTVSSGCPPCPAPEAAGAPSVFLFPPKPKDTLMISRTPEVTCVVVDVSHEDPEVKFNWYVDGVEVHNAKTKPREEQYNSTYRVVSVLTVLHQDWLNGKEYKCKVSNKALPAPIEKTISKAKGQPREPQVYTLPPCREEMTKNQVSLSCAVKGFYPSDIAVEWESNGQPENNYKTTPPVLDSDGSFFLVSKLTVDKSRWQQGNVFSCSVMHEALHNHYTQKSLSLSPG
With B1, the “In vitro Cytotoxicity (nM), T-cell retargeting assay” value (shortened to “In vitro Cytotoxicity (nM)”) in assay [1] was 0.194 nM. Further, the Kd with Human CD3 epsilon-delta was found to be 72 nM.

B2: GUCY2C-0250 (bispecific antibody)
chain 1: B1 chain 1 with S34T, L37M, K57N, L58V, A59E, A98V, Q172R
chain 2: DIQMTQSPSSLSASVGDRVTITCTSSQSLFNVRSRKNYLAWYQQKPGKAPKLLIYWASTRESGVPSRFSGSGSGTDFTLTISSLQPEDFATYYCKQSYDLFTFGGGTKVEIKGGGSGGGGEVQLVESGGGLVQPGGSLRLSCAASGYTFTSYWMHWVRQAPGKGLEWIGEIKPSNGLTNYIEKFKNRFTISVDKAKNSAYLQMNSLRAEDTAVYYCTRTITTTEGYWFFDVWGQGTLVTVSSGCPPCPAPEAAGAPSVFLFPPKPKDTLMISRTPEVTCVVVDVSHEDPEVKFNWYVDGVEVHNAKTKPREEQYNSTYRVVSVLTVLHQDWLNGKEYKCKVSNKALPAPIEKTISKAKGQPREPQVYTLPPCREEMTKNQVSLSCAVKGFYPSDIAVEWESNGQPENNYKTTPPVLDSDGSFFLVSKLTVDKSRWQQGNVFSCSVMHEALHNHYTQKSLSLSPG
On to B2, for which, in the assay with Human GUCY2C ECD-muIgG2a, the half-maximal effective concentration (EC50) stood at 76.9 nM. This counts as double-digit nanomolar.

B3: GUCY2C-1678 (bispecific antibody)
chain 1: B1 chain 1
chain 2: B1 chain 2 with S26D
As to B3, the “In vitro Cytotoxicity (nM)” value in assay [1] is 0.247 nM. Further, the Kd in the assay with Human CD3 epsilon-delta was 63.5 nM.

B4: GUCY2C-1680 (bispecific antibody)
chain 1: B1 chain 1
chain 2: B1 chain 2 with Q27E
B4: the “In vitro Cytotoxicity (nM)” value in assay [1] worked out at 0.385 nM. Moreover, in the assay with Human CD3 epsilon-delta, the Kd amounted to 78.6 nM.
